Experimental findings from patent publication US20090188010A1 are described below.

Holding throughout (test): cell-based or functional assay
Assay [1] concerns the target chymotrypsins in unfractionated gut extracts from H. punctigera larvae.
Assay [2] has as its target NaPI-insensitive chymotrypsin from H. punctigera (HpCh5), native enzyme from the larval gut (Helicoverpa punctigera).
Assay [3] deals with Bovine chymotrypsin (bovine) (UniProt P00766).

Chain of lima bean trypsin inhibitor (Sigma) (P01056 whole entry): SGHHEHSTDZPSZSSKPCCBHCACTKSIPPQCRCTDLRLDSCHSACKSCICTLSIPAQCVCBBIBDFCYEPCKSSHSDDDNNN
Chain of NaPI-insensitive chymotrypsin from H. punctigera (HpCh5), native enzyme from the larval gut (Helicoverpa punctigera) (chain, as listed by the source limits assumed): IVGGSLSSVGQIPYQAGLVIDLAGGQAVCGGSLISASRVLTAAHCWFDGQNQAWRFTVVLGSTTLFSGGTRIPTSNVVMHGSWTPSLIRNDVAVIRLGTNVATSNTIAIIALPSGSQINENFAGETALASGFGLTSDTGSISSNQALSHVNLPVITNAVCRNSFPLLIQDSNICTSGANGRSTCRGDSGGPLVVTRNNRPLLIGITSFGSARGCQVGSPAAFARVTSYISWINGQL
Chain of soybean trypsin inhibitor (P01070 25-205): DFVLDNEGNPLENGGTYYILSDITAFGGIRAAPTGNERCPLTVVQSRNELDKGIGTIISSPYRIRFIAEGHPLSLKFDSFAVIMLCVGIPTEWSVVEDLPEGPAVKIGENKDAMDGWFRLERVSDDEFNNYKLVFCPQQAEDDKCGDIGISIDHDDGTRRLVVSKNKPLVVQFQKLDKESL
Chain of soybean Bowman Birk inhibitor (P01055 40-110 limits assumed): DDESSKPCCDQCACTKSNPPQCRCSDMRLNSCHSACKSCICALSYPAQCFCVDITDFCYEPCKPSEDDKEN

In turn, “C1 monomer, chymotrypsin inhibitor from the N. alata proteinase inhibitor precursor, HPLC purified” gave a degree of inhibition of gut chymotrypsin activity of control insects, 80 nM C1 (FIG. 2F) in assay [1] of 75%.

For “soybean trypsin inhibitor (from UniProt P01070 25-205)”, the % Inhibition of chymotrypsin activity at the maximum concentration tested (>20 µM) stood at 82% in assay [2] and 94% in assay [3]. Also, the IC50 of inhibition of chymotrypsin activity in assay [2] worked out at 33000 nM; in assay [3] it was 13000 nM.

As for “soybean Bowman Birk inhibitor (from UniProt P01055 40-110)”, in assay [2], the % Inhibition of chymotrypsin activity at the maximum concentration tested (10 µM) worked out at 100% and the IC50 of inhibition of chymotrypsin activity was determined as 240 nM. In assay [3], the % Inhibition of chymotrypsin activity at the maximum concentration tested (5 µM) worked out at 100% and the IC50 of inhibition of chymotrypsin activity is 60 nM.

In assay [2], “lima bean trypsin inhibitor (Sigma) (from UniProt P01056 1-83)” gave a % Inhibition of chymotrypsin activity at the maximum concentration tested (>20 µM) of 89% and an IC50 of inhibition of chymotrypsin activity of 3000 nM. In assay [3], this substance registered a % Inhibition of chymotrypsin activity at the maximum concentration tested (5 µM) of 100% and an IC50 of inhibition of chymotrypsin activity of 200 nM.
